Measurements reported in US20140271457A1 (AbbVie / Abbott, published 2014).

Biological target: Recombinant Human TNF-α/TNFSF1A (human, UniProt P01375 77-233)
Assay: cell-based or functional assay

Chain of Recombinant Human TNF-α/TNFSF1A (P01375 77-233 limits assumed): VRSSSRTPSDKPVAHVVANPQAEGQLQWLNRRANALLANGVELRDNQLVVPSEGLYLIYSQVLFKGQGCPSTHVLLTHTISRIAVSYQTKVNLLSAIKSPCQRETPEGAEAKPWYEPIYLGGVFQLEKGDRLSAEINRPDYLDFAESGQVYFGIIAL

Row | N-Terminal VD huTNFα Neutralization Assay IC50 [pM] | C-Terminal VD huTNFα Neutralization Assay IC50 [pM] | Binder
1 | 3 | – | DVD2744 (bispecific antibody, IgG1) VH: EVQLVESGGGLVQPGGSLRLSCAASGFTFSNYGVEWVRQAPGKGLEWVSGIWADGSTHYADTVKSRFTISRDNSKNTLYLQMNSLRAEDTAVYYCAREWQHGPVAYWGQGTLVTVSSASTKGPEVQLVQSGAEVKKPGASVKVSCKASGYTFTKYWLGWVRQAPGQGLEWMGDIYPGYDYTHYNEKFKDRVTLTTDTSTSTAYMELRSLRSDDTAVYYCARSDGSSTYWGQGTLVTVSS VL: DIQMTQSPSSLSASVGDRVTITCKASQLVSSAVAWYQQKPGKAPKLLIYWASTLHTGVPSRFSGSGSGTDFTLTISSLQPEDFATYYCQQHYRTPFTFGQGTKLEIKRTVAAPDVLMTQTPLSLPVTPGEPASISCTSSQNIVHSNGNTYLEWYLQKPGQSPQLLIYKVSNRFSGVPDRFSGSGSGTDFTLKISRVEAEDVGVYYCFQVSHVPYTFGGGTKVEIKR
2 | 3 | – | DVD2747 (bispecific antibody, IgG1) VH: EVQLVESGGGLVQPGGSLRLSCAASGFTFSNYGVEWVRQAPGKGLEWVSGIWADGSTHYADTVKSRFTISRDNSKNTLYLQMNSLRAEDTAVYYCAREWQHGPVAYWGQGTLVTVSSASTKGPSVFPLAPEVQLVQSGAEVKKPGASVKVSCKASGYTFTKYWLGWVRQAPGQGLEWMGDIYPGYDYTHYNEKFKDRVTLTTDTSTSTAYMELRSLRSDDTAVYYCARSDGSSTYWGQGTLVTVSS VL: DIQMTQSPSSLSASVGDRVTITCKASQLVSSAVAWYQQKPGKAPKLLIYWASTLHTGVPSRFSGSGSGTDFTLTISSLQPEDFATYYCQQHYRTPFTFGQGTKLEIKRTVAAPDVLMTQTPLSLPVTPGEPASISCTSSQNIVHSNGNTYLEWYLQKPGQSPQLLIYKVSNRFSGVPDRFSGSGSGTDFTLKISRVEAEDVGVYYCFQVSHVPYTFGGGTKVEIKR
3 | 6 | – | DVD2746 (bispecific antibody, IgG1) VH: EVQLVESGGGLVQPGGSLRLSCAASGFTFSNYGVEWVRQAPGKGLEWVSGIWADGSTHYADTVKSRFTISRDNSKNTLYLQMNSLRAEDTAVYYCAREWQHGPVAYWGQGTLVTVSSASTKGPEVQLVQSGAEVKKPGASVKVSCKASGYTFTKYWLGWVRQAPGQGLEWMGDIYPGYDYTHYNEKFKDRVTLTTDTSTSTAYMELRSLRSDDTAVYYCARSDGSSTYWGQGTLVTVSS VL: DIQMTQSPSSLSASVGDRVTITCKASQLVSSAVAWYQQKPGKAPKLLIYWASTLHTGVPSRFSGSGSGTDFTLTISSLQPEDFATYYCQQHYRTPFTFGQGTKLEIKRTVAAPSVFIFPPDVLMTQTPLSLPVTPGEPASISCTSSQNIVHSNGNTYLEWYLQKPGQSPQLLIYKVSNRFSGVPDRFSGSGSGTDFTLKISRVEAEDVGVYYCFQVSHVPYTFGGGTKVEIKR
4 | 3 | – | DVD2794 (bispecific antibody, IgG1) VH: EVQLVQSGAEVKKPGASVKVSCKASGYTFANYGIIWVRQAPGQGLEWMGWINTYTGKPTYAQKFQGRVTMTTDTSTSTAYMELSSLRSEDTAVYYCARKLFTTMDVTDNAMDYWGQGTTVTVSSASTKGPEVQLVQSGAEVKKPGASVKVSCKASGYTFTKYWLGWVRQAPGQGLEWMGDIYPGYDYTHYNEKFKDRVTLTTDTSTSTAYMELRSLRSDDTAVYYCARSDGSSTYWGQGTLVTVSS VL: DIQMTQSPSSLSASVGDRVTITCRASQDISQYLNWYQQKPGKAPKLLIYYTSRLQSGVPSRFSGSGSGTDFTLTISSLQPEDFATYFCQQGNTWPPTFGQGTKLEIKRTVAAPDVLMTQTPLSLPVTPGEPASISCTSSQNIVHSNGNTYLEWYLQKPGQSPQLLIYKVSNRFSGVPDRFSGSGSGTDFTLKISRVEAEDVGVYYCFQVSHVPYTFGGGTKVEIKR
5 | 2 | – | DVD2797 (bispecific antibody, IgG1) VH: EVQLVQSGAEVKKPGASVKVSCKASGYTFANYGIIWVRQAPGQGLEWMGWINTYTGKPTYAQKFQGRVTMTTDTSTSTAYMELSSLRSEDTAVYYCARKLFTTMDVTDNAMDYWGQGTTVTVSSASTKGPSVFPLAPEVQLVQSGAEVKKPGASVKVSCKASGYTFTKYWLGWVRQAPGQGLEWMGDIYPGYDYTHYNEKFKDRVTLTTDTSTSTAYMELRSLRSDDTAVYYCARSDGSSTYWGQGTLVTVSS VL: DIQMTQSPSSLSASVGDRVTITCRASQDISQYLNWYQQKPGKAPKLLIYYTSRLQSGVPSRFSGSGSGTDFTLTISSLQPEDFATYFCQQGNTWPPTFGQGTKLEIKRTVAAPDVLMTQTPLSLPVTPGEPASISCTSSQNIVHSNGNTYLEWYLQKPGQSPQLLIYKVSNRFSGVPDRFSGSGSGTDFTLKISRVEAEDVGVYYCFQVSHVPYTFGGGTKVEIKR
6 | 10 | – | DVD2796 (bispecific antibody, IgG1) VH: EVQLVQSGAEVKKPGASVKVSCKASGYTFANYGIIWVRQAPGQGLEWMGWINTYTGKPTYAQKFQGRVTMTTDTSTSTAYMELSSLRSEDTAVYYCARKLFTTMDVTDNAMDYWGQGTTVTVSSASTKGPEVQLVQSGAEVKKPGASVKVSCKASGYTFTKYWLGWVRQAPGQGLEWMGDIYPGYDYTHYNEKFKDRVTLTTDTSTSTAYMELRSLRSDDTAVYYCARSDGSSTYWGQGTLVTVSS VL: DIQMTQSPSSLSASVGDRVTITCRASQDISQYLNWYQQKPGKAPKLLIYYTSRLQSGVPSRFSGSGSGTDFTLTISSLQPEDFATYFCQQGNTWPPTFGQGTKLEIKRTVAAPSVFIFPPDVLMTQTPLSLPVTPGEPASISCTSSQNIVHSNGNTYLEWYLQKPGQSPQLLIYKVSNRFSGVPDRFSGSGSGTDFTLKISRVEAEDVGVYYCFQVSHVPYTFGGGTKVEIKR
7 | – | 381 | DVD2798 (bispecific antibody, IgG1) VH: EVQLVQSGAEVKKPGASVKVSCKASGYTFTKYWLGWVRQAPGQGLEWMGDIYPGYDYTHYNEKFKDRVTLTTDTSTSTAYMELRSLRSDDTAVYYCARSDGSSTYWGQGTLVTVSSGGGGSGGGGSEVQLVQSGAEVKKPGASVKVSCKASGYTFANYGIIWVRQAPGQGLEWMGWINTYTGKPTYAQKFQGRVTMTTDTSTSTAYMELSSLRSEDTAVYYCARKLFTTMDVTDNAMDYWGQGTTVTVSS VL: DVLMTQTPLSLPVTPGEPASISCTSSQNIVHSNGNTYLEWYLQKPGQSPQLLIYKVSNRFSGVPDRFSGSGSGTDFTLKISRVEAEDVGVYYCFQVSHVPYTFGGGTKVEIKRGGSGGGGSGDIQMTQSPSSLSASVGDRVTITCRASQDISQYLNWYQQKPGKAPKLLIYYTSRLQSGVPSRFSGSGSGTDFTLTISSLQPEDFATYFCQQGNTWPPTFGQGTKLEIKR
8 | – | 384 | DVD2752 (bispecific antibody, IgG1) VH: EVQLVQSGAEVKKPGASVKVSCKASGYTFTKYWLGWVRQAPGQGLEWMGDIYPGYDYTHYNEKFKDRVTLTTDTSTSTAYMELRSLRSDDTAVYYCARSDGSSTYWGQGTLVTVSSASTKGPSVFPLAPEVQLVESGGGLVQPGGSLRLSCAASGFTFSNYGVEWVRQAPGKGLEWVSGIWADGSTHYADTVKSRFTISRDNSKNTLYLQMNSLRAEDTAVYYCAREWQHGPVAYWGQGTLVTVSS VL: DVLMTQTPLSLPVTPGEPASISCTSSQNIVHSNGNTYLEWYLQKPGQSPQLLIYKVSNRFSGVPDRFSGSGSGTDFTLKISRVEAEDVGVYYCFQVSHVPYTFGGGTKVEIKRTVAAPDIQMTQSPSSLSASVGDRVTITCKASQLVSSAVAWYQQKPGKAPKLLIYWASTLHTGVPSRFSGSGSGTDFTLTISSLQPEDFATYYCQQHYRTPFTFGQGTKLEIKR
9 | – | 3080 | DVD2799 (bispecific antibody, IgG1) VH: EVQLVQSGAEVKKPGASVKVSCKASGYTFTKYWLGWVRQAPGQGLEWMGDIYPGYDYTHYNEKFKDRVTLTTDTSTSTAYMELRSLRSDDTAVYYCARSDGSSTYWGQGTLVTVSSASTKGPEVQLVQSGAEVKKPGASVKVSCKASGYTFANYGIIWVRQAPGQGLEWMGWINTYTGKPTYAQKFQGRVTMTTDTSTSTAYMELSSLRSEDTAVYYCARKLFTTMDVTDNAMDYWGQGTTVTVSS VL: DVLMTQTPLSLPVTPGEPASISCTSSQNIVHSNGNTYLEWYLQKPGQSPQLLIYKVSNRFSGVPDRFSGSGSGTDFTLKISRVEAEDVGVYYCFQVSHVPYTFGGGTKVEIKRTVAAPDIQMTQSPSSLSASVGDRVTITCRASQDISQYLNWYQQKPGKAPKLLIYYTSRLQSGVPSRFSGSGSGTDFTLTISSLQPEDFATYFCQQGNTWPPTFGQGTKLEIKR
10 | – | 116 | DVD2801 (bispecific antibody, IgG1) VH: EVQLVQSGAEVKKPGASVKVSCKASGYTFTKYWLGWVRQAPGQGLEWMGDIYPGYDYTHYNEKFKDRVTLTTDTSTSTAYMELRSLRSDDTAVYYCARSDGSSTYWGQGTLVTVSSASTKGPEVQLVQSGAEVKKPGASVKVSCKASGYTFANYGIIWVRQAPGQGLEWMGWINTYTGKPTYAQKFQGRVTMTTDTSTSTAYMELSSLRSEDTAVYYCARKLFTTMDVTDNAMDYWGQGTTVTVSS VL: DVLMTQTPLSLPVTPGEPASISCTSSQNIVHSNGNTYLEWYLQKPGQSPQLLIYKVSNRFSGVPDRFSGSGSGTDFTLKISRVEAEDVGVYYCFQVSHVPYTFGGGTKVEIKRTVAAPSVFIFPPDIQMTQSPSSLSASVGDRVTITCRASQDISQYLNWYQQKPGKAPKLLIYYTSRLQSGVPSRFSGSGSGTDFTLTISSLQPEDFATYFCQQGNTWPPTFGQGTKLEIKR
11 | 6 | – | DVD2793 (bispecific antibody, IgG1) VH: EVQLVQSGAEVKKPGASVKVSCKASGYTFANYGIIWVRQAPGQGLEWMGWINTYTGKPTYAQKFQGRVTMTTDTSTSTAYMELSSLRSEDTAVYYCARKLFTTMDVTDNAMDYWGQGTTVTVSSGGGGSGGGGSEVQLVQSGAEVKKPGASVKVSCKASGYTFTKYWLGWVRQAPGQGLEWMGDIYPGYDYTHYNEKFKDRVTLTTDTSTSTAYMELRSLRSDDTAVYYCARSDGSSTYWGQGTLVTVSS VL: DIQMTQSPSSLSASVGDRVTITCRASQDISQYLNWYQQKPGKAPKLLIYYTSRLQSGVPSRFSGSGSGTDFTLTISSLQPEDFATYFCQQGNTWPPTFGQGTKLEIKRGGSGGGGSGDVLMTQTPLSLPVTPGEPASISCTSSQNIVHSNGNTYLEWYLQKPGQSPQLLIYKVSNRFSGVPDRFSGSGSGTDFTLKISRVEAEDVGVYYCFQVSHVPYTFGGGTKVEIKR
12 | – | 2880 | DVD2748 (bispecific antibody, IgG1) VH: EVQLVQSGAEVKKPGASVKVSCKASGYTFTKYWLGWVRQAPGQGLEWMGDIYPGYDYTHYNEKFKDRVTLTTDTSTSTAYMELRSLRSDDTAVYYCARSDGSSTYWGQGTLVTVSSGGGGSGGGGSEVQLVESGGGLVQPGGSLRLSCAASGFTFSNYGVEWVRQAPGKGLEWVSGIWADGSTHYADTVKSRFTISRDNSKNTLYLQMNSLRAEDTAVYYCAREWQHGPVAYWGQGTLVTVSS VL: DVLMTQTPLSLPVTPGEPASISCTSSQNIVHSNGNTYLEWYLQKPGQSPQLLIYKVSNRFSGVPDRFSGSGSGTDFTLKISRVEAEDVGVYYCFQVSHVPYTFGGGTKVEIKRGGSGGGGSGDIQMTQSPSSLSASVGDRVTITCKASQLVSSAVAWYQQKPGKAPKLLIYWASTLHTGVPSRFSGSGSGTDFTLTISSLQPEDFATYYCQQHYRTPFTFGQGTKLEIKR
